Reference: patent US20040147437A1, “Calycins” (priority 2000, published 2004)

Assays:
[1] = Ligand binding affinity of proteins for selected ligands (FIG. 5): retinoic acid; conditions: mutant relative to native ERABP; see FIG. 5
[2] = Ligand binding affinity of proteins for selected ligands (FIG. 5): retinol; conditions: see FIG. 5
[3] = Ligand binding affinity of proteins for selected ligands (FIG. 5): retinal; conditions: see FIG. 5

B1: ERABP (Arg 80 and Glu63 to isoleucine): Epididymal Retinoic acid Binding Protein with Arg 80 and Glu63 mutated to isoleucine (protein, UniProt P06911 1-188, looked up, variant E63I R80I)
chain: MENIMPFALLGLCVGLAAGTEGAVVKDFDISKFLGFWYEIAFASKMGTPGLAHKEEKMGAMVVELKENLLALTTTYYSEDHCVLIKVTATEGDGPAKFQVTILSGKKEVVVEATDYLTYAIIDITSLVAGAVHRTMKLYSRSLDDNGEALYNFRKITSDHGFSETDLYILKHDLTCVKVLQSAAESRP
Q: With B1 as the molecule, how does the “affinity for retinoic acid” value [1] read?
A: reduced affinity

Q: What about the binding of retinol [2] of the same molecule?
A: bind

Q: What about the binding of retinal [3] of the same molecule?
A: bind
